This is an account of results in patent US12123876B2, “Antibody binding to HEG1 and use of the antibody for detection and treatment of mesothelioma” (Kanagawa Prefectural Hospital Organization, priority 2016, dated 2024).

This assay concerns mesothelioma. Description: Immunohistological staining of mesothelioma tissue sections. Details: species or system human. The source says:
For the detection of mesothelioma according to the present invention, the antibody according to the present invention or an antigen-binding fragment thereof is contacted with a sample. In the case that a sample separated from a living body such as cells, a tissue, or a tissue section is used, antibody reaction can be detected by using a method well known to those skilled in the art (e.g., an immunohistological staining method). If antibody reaction is then observed (e.g., in the case of a positive result), the subject from whom the sample is derived is likely to be affected with mesothelioma. Whether a result for antibody reaction is positive can be determined in accordance with an Allred Score method (see Allred D C et al., Mod Pathol, 11: 155-168, 1998). In the Allred Score method, for example, a total score is calculated from the following equation: Total score (TS)=Proportion score (PS)+Intensity score (IS) If the total score is 3 or more, then it can be determined that the result for reaction is positive. PS and IS can be determined from the following score tables. Score Tables for Allred Score Method Proportion Score, PS • 0: no staining • 1: a proportion of staining of less than 1% • 2: a proportion of staining of 1% or more and less than 10% • 3: a proportion of staining of 10% or more and less than ⅓ • 4: a proportion of staining of ⅓ or more and less than ⅔ • 5: a proportion of staining of ⅔ or more Intensity score, IS • 0: negative • 1: weak staining • 2: intermediate staining • 3: strong staining
AMeX-fixed cell precipitates or formalin-fixed tissues were paraffin-embedded to prepare thin sections. Each of the sections was fixed to a microscope slide, and subjected to deparaffinization and dehydration with xylene and ethanol, followed by activation of an antigen under different conditions. Each section was treated with 3% hydrogen peroxide for 5 minutes to deactivate endogenous peroxidase, and then washed with PBS and blocked with 0.5% casein for 10 minutes. After 100 μL of a solution containing a primary antibody was added to each section and treated at room temperature for 2 hours, the section was washed with PBS and allowed to develop color by using a Histofine Simple Stain MAX-PO (Multi) ([…] BIOSCIENCE INC.), Ventana ultraView DAB universal kit (Roche Diagnostics K. K.), or the EnVision+kits. Each section was stained with hematoxylin and then dehydrated, and encapsulated with Malinol (MUTO PURE CHEMICALS CO., LTD.) to observe under a microscope. The conditions for activation of an antigen were as follows: at 98° C. for 40 minutes for calretinin, mesothelin, and the SKM9-2 antigen; and at 95° C. for 64 minutes for cytokeratin 5/6 (CK5/6), podoplanin, and Wilms' tumor gene product 1 (WT-1). The following activation solutions were used: 10 mM Tris buffer (pH 9.0) containing 1 mM ethylenediamine tetraacetate (EDTA) for calretinin, CK5/6, and podoplanin; and 10 mM citrate buffer (pH 6.0) containing 0.1% TWEEN® 20 (polyethylene glycol sorbitan monolaurate, polyoxyethylenesorbitan monolaurate) for WT-1, mesothelin, and the SKM9-2 antigen. The following primary antibodies were used: a rabbit anti-calretinin polyclonal antibody (PAD:DC8) (Life Technologies Japan Ltd., Tokyo, Japan) for calretinin; a mouse anti-cytokeratin 5,6 monoclonal antibody (D5/16B4) ([…] BIOSCIENCE INC.) for CK5/6; a mouse anti-human mesothelin monoclonal antibody (5B2) (Leica Microsystems, Inc., Bannockburn, IL) for mesothelin; a mouse anti-podoplanin monoclonal antibody (D2-40) (Roche Diagnostics K. K.) for podoplanin; and a mouse anti-human WT-1 monoclonal antibody (6F-H2) (Roche Diagnostics K. K.) for WT-1.
Hereinafter, cases that the fraction of cells with scores of 1 or more determined in accordance with the Allred Score method was 10% or more in the cell were determined as positive.

B1: SKM9-2 antibody: mouse monoclonal IgG1 kappa antibody binding glycosylated HEG1; heavy chain SEQ ID NO: 2, light chain SEQ ID NO: 4 (antibody, listed as Mus musculus)
heavy: MGWSSIILFLVATTTGVHSQVQLQQPGAELVRPGASVKLSCKASGFSFTTYWITWVKQRPGQGLEWIGMIHPSDSETRLSQTFKDKATLTVDKSSNTAYMQFSSPTSEDSAVYYCVRDFDVWGAGTTVTVSSAKTTPPSVYPLAPGSAAQTNSMVTLGCLVKGYFPEPVTVTWNSGSLSSGVHTFPAVLQSDLYTLSSSVTVPSSTWPSETVTCNVAHPASSTKVDKKIVPRDCGCKPCICTVPEVSSVFIFPPKPKDVLTITLTPKVTCVVVDISKDDPEVQFSWFVDDVEVHTAQTQPREEQFNSTFRSVSELPIMHQDWLNGKEFKCRVNSAAFPAPIEKTISKTKGRPKAPQVYTIPPPKEQMAKDKVSLTCMITDFFPEDITVEWQWNGQPAENYKNTQPIMDTDGSYFVYSKLNVQKSNWEAGNTFTCSVLHEGLHNHHTEKSLSHSPGK
light: MKLPVRLLVLMFWIPASISDVLMTQTPLSLPVSLGDQASISCRSSQNIVHNNGNTYLGWYLQKPGQSPKLLIFKVSNRFSGVPDRFSGSGSGTDFTLKISRVEAEDLGVYYCFQGSHIPRTFGGGTRLEIKRADAAPTVSIFPPSSEQLTSGGASVVCFLNNFYPKDINVKWKIDGSERQNGVLNSWTDQDSKDSTYSMSSTLTLTKDEYERHNSYTCEATHKTSTSPIVKSFNRNEC
With B1, the “Staining of well-differentiated papillary mesothelioma (WDPM)” value (WDPM) was “one in one case”. Moreover, the “Sensitivity (%)” value (all mesothelioma types) is reported as 91.3%. The “Detection of mesothelioma, Biphasic (positive cases/cases)” value (biphasic mesothelioma) is 12/13. The “Detection of mesothelioma, Desmoplastic (positive cases/cases)” value (desmoplastic mesothelioma) was 3/4. The “Staining of mesothelioma, representative images” value (epithelial mesothelioma and sarcomatoid mesothelioma) is “successfully stained”. The “Detection of mesothelioma, Epithelial (positive cases/cases)” value (epithelial mesothelioma, positive = fraction of cells with Allred score 1 or more is 10% or more) is listed as 62/66. In addition, the “Detection of mesothelioma, Sarcomatoid (positive cases/cases)” value (sarcomatoid mesothelioma) is reported as 7/9.
